The data set deals with the molecule itself. The data set can be described thus: native gel or EMSA; native-PAGE (10% gel) of the load (soluble E. coli lysate), unbound, wash and elution fractions of DEAE Sepharose and DEAE Sephadex batch chromatography, 20 mM Tris-HCl, 50 mM NaCl, pH 7.0 to 9.0 at 25°C; unbound fractions more than 90% pure. A general note: In EMSA bound probe runs differently from free probe, usually more slowly.

B1: Helicobacter pylori neutrophil-activating protein (natural protein)
chain: MKTFEILKHLQADAIVLFMKVHNFHWNVKGTDFFNVHKATEEIYEEFADMFDDLAERIVQLGHHPLVTLSEAIKLTRVKEETKTSFHSKDIFKEILEDYKYLEKEFKELSNTAEKEGDKVTVTYADDQLAKLQKSIWMLQAHLA
notes: HP-NAP, product of the napA gene (HP0243) amplified from genomic DNA of H. pylori strain 26695; subunit of approximately 17 kDa; It states no tag and speaks of recombinant HP-NAP in its native form; its own experiments show only an oligomer; also called HP-NAP; recombinant HP-NAP; source: E. coli BL21(DE3) (pET42a-NAP, IPTG); in soluble lysate and DEAE batch chromatography fractions; copies: 12
B1: the binding result was “binds”.

(Values after paper PMC5362085, “Differential effects of DEAE negative mode chromatography and gel-filtration chromatography on the charge status of Helicobacter pylori neutrophil-activating protein” (PLoS ONE, 2017).)
